Consider 1 sequence from US20040110161.

For series [1], the target named is T1, MutS (Cy5-labeled) (Escherichia coli) (UniProt P23909).
T1 sequence: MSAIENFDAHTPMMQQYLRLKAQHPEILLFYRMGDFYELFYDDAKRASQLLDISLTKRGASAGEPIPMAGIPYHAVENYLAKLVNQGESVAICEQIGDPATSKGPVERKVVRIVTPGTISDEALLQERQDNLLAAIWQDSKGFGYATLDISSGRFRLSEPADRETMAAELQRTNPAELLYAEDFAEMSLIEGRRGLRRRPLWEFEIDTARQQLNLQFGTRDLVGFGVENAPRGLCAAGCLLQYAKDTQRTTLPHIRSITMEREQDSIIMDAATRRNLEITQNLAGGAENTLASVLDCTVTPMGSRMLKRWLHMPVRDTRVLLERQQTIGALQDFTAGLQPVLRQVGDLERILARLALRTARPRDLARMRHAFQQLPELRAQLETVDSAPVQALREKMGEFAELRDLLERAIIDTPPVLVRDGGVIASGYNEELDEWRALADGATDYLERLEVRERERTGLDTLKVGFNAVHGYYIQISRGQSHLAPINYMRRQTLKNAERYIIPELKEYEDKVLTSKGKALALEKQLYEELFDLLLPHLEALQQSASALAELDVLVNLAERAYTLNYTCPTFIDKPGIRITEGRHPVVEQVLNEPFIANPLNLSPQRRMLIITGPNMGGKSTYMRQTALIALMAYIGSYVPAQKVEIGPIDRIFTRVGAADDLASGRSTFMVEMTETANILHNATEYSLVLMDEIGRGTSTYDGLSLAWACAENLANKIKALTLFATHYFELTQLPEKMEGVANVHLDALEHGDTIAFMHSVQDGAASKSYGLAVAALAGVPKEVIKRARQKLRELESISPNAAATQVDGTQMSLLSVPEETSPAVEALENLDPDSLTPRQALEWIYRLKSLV
As to conditions: mung bean nuclease and SSB treated hydrogel chip.

Series [2] deals with T2, MBP-MutS fusion (Cy5-labeled) (Escherichia coli) (UniProt P23909).
T2 sequence: T1 sequence
As to conditions: with nuclease and SSB.

Regarding “AGTGGTAATCTACTGGGACGGAACAGCTTTGAGGTGCGTGTTTGTGCCTGTCCTGGGAGAGACCGGCGCACAG (double strand) [cExon8/SW-480 PCR product]”, the binding signal (fluorescence units) is 461 in series [1] and 168 in series [2].
